Laboratory results as given in publication PMC11382572, “Structural and kinetic insights into the stereospecific oxidation of R-2,3-dihydroxypropanesulfonate by DHPS-3-dehydrogenase from Cupriavidus pinatubonensis” (Chemical Science, 2024).

Legend:
[1] = tested on: O=S(=O)(O)C[C@H](O)CO; experiment: purified protein; assay type: biochemical, Cupriavidus pinatubonensis; conditions: Zn2+
[2] = tested on: O=S(=O)(O)C[C@H](O)CO; experiment: Michaelis-Menten kinetics (apparent KM); assay type: biochemical, Cupriavidus pinatubonensis; conditions: Zn2+, NAD+

Substance	Km [1]	kcat/Km ([1]; NADH active site, sulfonate and secondary hydroxyl groups participate in octahedral zinc coordination, occupancy […])	Km [2]	kcat/Km [2]
DHPS-3-dehydrogenase (CpHpsN) (Cupriavidus pinatubonensis JMP134; H319A)	1200 ± 300 µM	3.1 M⁻¹ s⁻¹	–	–
DHPS-3-dehydrogenase (CpHpsN) (Cupriavidus pinatubonensis JMP134; E318A)	–	–	2800 ± 300 µM	1.8 M⁻¹ s⁻¹
